Source: PMC4947123

Target: Ubiquitin (Ub)
Assay: biotin-streptavidin pull-down and mass spectrometry
Conditions: N2A cells, triplicate experiments, S0: 1.5, FDR: 0.01, read off a plot

other: Welch's t-test difference (logarithmized ratio of relative protein intensities, WT vs mutant): 4.1
Substance: bioGFP-tagged OPTN wild-type (from UniProt Q96CV9) E478G
